# B1: HW-42 chimeric rabbit-human IgG1 LA/LA/PG (antibody, V domains shown)
# VH: QSVKESEGGLFKPADTLTLTCTVSGFSLSSNEISWVRQAPGEGLEYIGIIDTGGRAYYAVWARSRSTITRNTNLNTVTLKMTSLTAADTATYFCARGGVDTEWYAFSSWGPGTLVTVPS
# VL: SFVLTQPASVQVNLGQTVSLTCTADTLSRRYASWYQQKPGQAPVLLIFRDTSRPSGVPDRFSGSSSGDTATLTISGAQAGDEADYYCATSDGSGSNYQYVFGGGTQLTVTG
# notes: Fc-silenced (L234A/L235A/P329G) IgG1, lambda; Alexa Fluor 647-labeled in single-step flow cytometry; Cluster C-1
# B2: HW-113 chimeric rabbit-human IgG1 LA/LA/PG (antibody, V domains shown)
# VH: QKQLVESGGGLVQPGGSLTLTCTVSGFSLNKYYMGWFRQAPGKGLEWIGVISRSGDTYYSSWAKGRFTISKASTTVDLRITSPTTEDTATYFCARDASSPGFHGDRLDLWGQGTLVTVSS
# VL: SFVLTQPASVQVNLGQTVSLTCTADTLSRSYASWYQQKPGQAPVLLIYRDTSRPSGVPDRFSGSSSGNTATLTISGAQAGDEADYYCATSDGIGSNYLWVFGGGTQLTVTG
# notes: Fc-silenced (L234A/L235A/P329G) IgG1, lambda; Alexa Fluor 647-labeled in single-step flow cytometry
# B3: HW-97 chimeric rabbit-human IgG1 LA/LA/PG (antibody, V domains shown)
# VH: QKQLVESGGRLVTPGTPLTLTCTVTGIDLSSHGMSWVRQAPGKGLEWIGVIYPSGSTWYASWARGRFTISKTSTTVDLKMTSLTTEDTATHFCARGDVGGADNNIWGPGTLVTVSS
# VL: SFVLTQPASVQVDLGQTVSLTCTAETLSRSYASWYQQKPGQAPVLLIYRDTSRPSGVPDRFSGSSSGNTATLTISGAQAGDEADYYCATSDGSGSSYQYVFGGGTQLTVTG
# notes: Fc-silenced (L234A/L235A/P329G) IgG1, lambda; Alexa Fluor 647-labeled in single-step flow cytometry; Prototype of cluster C-97
# B4: TH9-0022 (antibody, human IgG1, kappa, L234A L235A, V domains shown)
# VH: QSLEESGGRLVTPGTPLTLTCTVSGFSLSSYAMNWVRQAPGKGLEWIGIINSYGSTYYASWAKGRFTISKTSTTVDLKITSPTTEDTATYFCARVTYDSYGYGYAPYGMDLWGPGTLVTVSS
# VL: LVMTQTPSSTSNAVGGTVTIKCQASQSIGNVLAWYQQKPGQPPKLLIYAASTLASGVPSRVGGSRSGTEYTLTISGVQREDAATYYCLGSDSDSDIAFGGGTELEILR
# notes: also called TH9-022; negative control
# What was measured:
# [1] = molecular target: T1, PTPRG, endogenous in H929 multiple myeloma cells (human, UniProt P23470 20-1445); assay: flow cytometry, H929 + CDH18 siRNA; None 0.19
# T1 construct: Native protein on H929 cells (flow cytometry, siRNA knockdown) and in H929 lysates (IP/MS); also called phosphatase receptor type γ
# T1 sequence (P23470 20-1445 limits assumed): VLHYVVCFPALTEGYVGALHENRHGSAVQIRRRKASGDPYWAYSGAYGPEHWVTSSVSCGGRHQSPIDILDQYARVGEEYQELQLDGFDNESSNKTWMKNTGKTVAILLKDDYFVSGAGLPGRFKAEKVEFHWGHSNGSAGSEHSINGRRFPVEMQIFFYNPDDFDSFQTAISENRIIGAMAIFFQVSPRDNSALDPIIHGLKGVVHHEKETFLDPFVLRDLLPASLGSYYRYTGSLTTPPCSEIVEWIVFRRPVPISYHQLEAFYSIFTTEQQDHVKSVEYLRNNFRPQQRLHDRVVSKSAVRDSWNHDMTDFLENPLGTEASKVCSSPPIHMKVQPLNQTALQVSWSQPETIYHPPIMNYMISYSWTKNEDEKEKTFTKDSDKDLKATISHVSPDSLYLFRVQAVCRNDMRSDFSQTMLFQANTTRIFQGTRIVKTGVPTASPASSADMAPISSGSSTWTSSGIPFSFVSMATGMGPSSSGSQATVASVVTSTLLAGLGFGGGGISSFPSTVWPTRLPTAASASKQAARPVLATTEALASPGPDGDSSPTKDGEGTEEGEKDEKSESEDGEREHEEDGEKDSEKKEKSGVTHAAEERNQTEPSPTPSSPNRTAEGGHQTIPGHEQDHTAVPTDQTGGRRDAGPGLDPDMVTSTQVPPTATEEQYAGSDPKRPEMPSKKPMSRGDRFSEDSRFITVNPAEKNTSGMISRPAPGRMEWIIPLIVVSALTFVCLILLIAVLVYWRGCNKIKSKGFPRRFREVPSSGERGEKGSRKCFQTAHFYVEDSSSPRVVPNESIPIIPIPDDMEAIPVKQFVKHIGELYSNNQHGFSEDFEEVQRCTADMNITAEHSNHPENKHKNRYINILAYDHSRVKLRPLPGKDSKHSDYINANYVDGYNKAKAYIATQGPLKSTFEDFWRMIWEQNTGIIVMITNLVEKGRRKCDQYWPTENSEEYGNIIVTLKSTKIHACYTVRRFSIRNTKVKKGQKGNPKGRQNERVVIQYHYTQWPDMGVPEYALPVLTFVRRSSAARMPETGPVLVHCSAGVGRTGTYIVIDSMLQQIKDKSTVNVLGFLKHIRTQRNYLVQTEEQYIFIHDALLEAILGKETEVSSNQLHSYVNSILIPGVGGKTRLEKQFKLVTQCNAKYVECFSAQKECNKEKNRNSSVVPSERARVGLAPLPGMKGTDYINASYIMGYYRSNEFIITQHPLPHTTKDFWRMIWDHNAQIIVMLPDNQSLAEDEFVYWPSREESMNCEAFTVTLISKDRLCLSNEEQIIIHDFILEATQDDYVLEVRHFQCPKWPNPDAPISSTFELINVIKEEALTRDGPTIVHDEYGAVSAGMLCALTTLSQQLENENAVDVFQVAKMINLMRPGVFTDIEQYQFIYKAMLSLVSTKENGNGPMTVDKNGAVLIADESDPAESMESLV
# [2] = molecular target: T2, ICAM1, endogenous in H929 multiple myeloma cells (human, UniProt P05362 28-532); assay: flow cytometry, H929 + CADM1 siRNA; None 449
# T2 construct: Native protein on H929 cells (flow cytometry, siRNA knockdown) and in H929 lysates (IP/MS); also called CD54
# T2 sequence (P05362 28-532 limits assumed): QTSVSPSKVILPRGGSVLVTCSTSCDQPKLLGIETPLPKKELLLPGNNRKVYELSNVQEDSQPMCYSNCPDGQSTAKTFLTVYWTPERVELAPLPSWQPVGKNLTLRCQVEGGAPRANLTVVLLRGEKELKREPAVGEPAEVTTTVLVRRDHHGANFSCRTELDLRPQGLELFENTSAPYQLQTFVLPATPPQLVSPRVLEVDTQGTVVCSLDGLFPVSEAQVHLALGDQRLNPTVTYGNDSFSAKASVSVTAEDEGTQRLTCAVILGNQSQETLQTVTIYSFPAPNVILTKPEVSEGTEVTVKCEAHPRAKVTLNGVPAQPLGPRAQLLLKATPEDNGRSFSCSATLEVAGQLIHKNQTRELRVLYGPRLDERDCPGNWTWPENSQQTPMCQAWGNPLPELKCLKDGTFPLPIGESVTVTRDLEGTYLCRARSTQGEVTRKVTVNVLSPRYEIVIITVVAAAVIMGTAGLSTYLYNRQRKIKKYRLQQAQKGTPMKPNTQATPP
# [3] = molecular target: T2, ICAM1, endogenous in H929 multiple …; assay: flow cytometry, H929 + PTPRG siRNA; None 490
# [4] = molecular target: T2, ICAM1, endogenous in H929 multiple …; assay: flow cytometry, H929 + CADM1 siRNA; None 0.89
# [5] = molecular target: T2, ICAM1, endogenous in H929 multiple …; assay: flow cytometry, H929 + PTPRG siRNA; None 2.13
# [6] = molecular target: T3, CADM1, endogenous in H929 multiple myeloma cells (human, UniProt Q9BY67 45-442); assay: flow cytometry, H929 + CDH18 siRNA; None 0.19
# T3 construct: Native protein on H929 cells (flow cytometry, siRNA knockdown) and in H929 lysates (IP/MS); RPMI-8226 cells were used for sorting with HW-97; also called IGSF4A
# T3 sequence: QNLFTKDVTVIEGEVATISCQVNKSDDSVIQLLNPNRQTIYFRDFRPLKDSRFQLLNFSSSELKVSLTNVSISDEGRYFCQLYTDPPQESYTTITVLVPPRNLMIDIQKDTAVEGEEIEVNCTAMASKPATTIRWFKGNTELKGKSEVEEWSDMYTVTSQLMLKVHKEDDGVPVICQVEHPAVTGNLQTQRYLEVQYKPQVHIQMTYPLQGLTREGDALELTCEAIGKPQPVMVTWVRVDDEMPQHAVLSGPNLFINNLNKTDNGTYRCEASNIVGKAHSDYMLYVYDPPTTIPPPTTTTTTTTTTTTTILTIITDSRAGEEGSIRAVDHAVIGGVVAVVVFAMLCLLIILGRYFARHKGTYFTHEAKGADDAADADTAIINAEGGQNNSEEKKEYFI
# [7] = molecular target: T1, PTPRG, endogenous in H929 multiple …; assay: flow cytometry, AF647-IgG1 on H929 cells
# Description: (§1) Staining protocol. Cells were harvested (5×10⁴ cells per sample), washed once with phosphate-buffered saline (PBS) at RT, and a second time with ice-cold FACS buffer (PBS, 0.5% BSA, 2 mM EDTA, 0.1% NaN₃). Cells were stained in 50 μL of primary antibody for 30 min on ice, washed twice with 100 μL FACS buffer, stained with 50 μL of diluted secondary antibody, washed two more times in FACS, and then resuspended in 50 μL FACS buffer. Samples were acquired on an Accuri C6 Plus or a BD FACSCanto II flow cytometer (both from BD Biosciences). Data were analyzed using FlowJo version 10 software. Primary antibodies: Fab (10 μg/mL), IgG1 (0.1 to 50 μg/mL), or 25 μL polyclonal Fabs from periplasmic extracts. Polyclonal Fabs were produced by diluting bacterial stocks by a factor of 100 in autoinduction media and incubating overnight to induce expression as previously described. […] Viability stains: DAPI (Cell Signaling Technology) or SYTOX AADvanced Dead Cell Stain (Thermo Fisher Scientific). Labeling: The panel of chimeric rabbit/human IgG1s was labeled using the Alexa Fluor 647 Labeling Kit (Thermo Fisher Scientific, #A20173) to facilitate single-step staining. Competition: Unlabeled IgG1s were added at saturating concentrations of 60 μg/mL to block the target receptors, incubating on ice for 30 min, followed by the addition of an equal volume of the Alexa Fluor 647 labeled antibody at 2 μg/mL, and the mixture was incubated on ice for another 30 min.
# [8] = molecular target: T2, ICAM1, endogenous in H929 multiple …; assay: flow cytometry, AF647-IgG1 on H929 cells
# Description: as §1
# [9] = molecular target: T3, CADM1, endogenous in H929 multiple …; assay: flow cytometry, AF647-IgG1 on H929 cells
# Description: as §1
binder,measurement,setting,value
B1,Cells stained (%),[1],99.5%
B2,mAb binding (MFI),[2],32600
same,mAb binding (MFI),[3],27800
same,Cells stained (%),[4],99.7%
same,Cells stained (%),[5],98.2%
B3,Cells stained (%),[6],99.7%
B4,binding result,[7],no binding
same,binding result,[8],no binding
same,binding result,[9],no binding
